Laboratory results taken from article PMC6997759 (2019).

What was measured:
[1] = biological target: AE.A244gp120Δ11 (N-terminal 11 aa deleted) (HIV-1 (clade AE, A244)); test: SPR; apparent affinity
[2] = biological target: B.MNgp120Δ11; test: SPR; apparent affinity

B1: DH677.3 MAb (antibody, V domains shown)
VH: QVQLVQSGAEVQKPGASVKVSCKASGYTFASYDINWVRQATGQGLEWMGWMNPKTGNTGYAQKFQGRVTLTRNTSISTAYMELTSLRSEDTAVYYCATYRIIAAVGYRYFQYWGQGTLVTVSS
VL: DIQLTQSPSSLSASVGDSVTITCRASQGFGNYLAWYQQRPGKVPEVLIYAATTLQSGVPSRFSGSGSGTDFTLTISSLQPEDVATYYCQKYNSAPFTFGQGTRLEIK
Kd [1]: 0.6 nM
Kd [2]: 7.02 nM
